This assay addresses Skeletal muscle actin (chicken, UniProt P68139 1-377). In words: cell-based or functional assay.

Results on four molecules are retold here after paper PMC6650474, “Plasmodium myosin A drives parasite invasion by an atypical force generating mechanism” (Nature Communications, 2019).

B1: Full-length PfMyoA (Plasmodium falciparum myosin A) heavy chain, wild type, co-expressed with the light chains PfMTIP and PfELC (complex)
chain 1: MAVTNEEIKTASKIVRRVSNVEAFDKSGSVFKGYQIWTDISPTIENDPNIMFVKCVVQQGSKKEKLTVVQIDPPGTGTPYDIDPTHAWNCNSQVDPMSFGDIGLLNHTNIPCVLDFLKHRYLKNQIYTTAVPLIVAINPYKDLGNTTNEWIRRYRDTADHTKLPPHVFTCAREALSNLHGVNKSQTIIVSGESGAGKTEATKQIMRYFASSKSGNMDLRIQTAIMAANPVLEAFGNAKTIRNNNSSRFGRFMQLVISHEGGIRYGSVVAFLLEKSRIITQDDNERSYHIFYQFLKGANSTMKSKFGLKGVTEYKLLNPNSTEVSGVDDVKDFEEVIESLKNMELSESDIEVIFSIVAGILTLGNVRLIEKQEAGLSDAAAIMDEDMGVFNKACELMYLDPELIKREILIKVTVAGGTKIEGRWNKNDAEVLKSSLCKAMYEKLFLWIIRHLNSRIEPEGGFKTFMGMLDIFGFEVFKNNSLEQLFINITNEMLQKNFVDIVFERESKLYKDEGISTAELKYTSNKEVINVLCEKGKSVLSYLEDQCLAPGGTDEKFVSSCATNLKENNKFTPAKVASNKNFIIQHTIGPIQYCAESFLLKNKDVLRGDLVEVIKDSPNPIVQQLFEGQVIEKGKIAKGSLIGSQFLNQLTSLMNLINSTEPHFIRCIKPNENKKPLEWCEPKILIQLHALSILEALVLRQLGYSYRRTFEEFLYQYKFVDIAAAEDSSVENQNKCVNILKLSGLSESMYKIGKSMVFLKQEGAKILTKIQREKLVEWENCVSVIEAAILKHKYKQKVNKNIPSLLRVQAHIRKKMVAQ
chain 2: MKQECNVCYFNLPDPESTLGPYDNELNYFTWGPGFEYEPEPQRKPLSIEESFENSEESEESVADIQQLEEKVDESDVRIYFNEKSSGGKISIDNASYNARKLGLAPSSIDEKKIKELYGDNLTYEQYLEYLSICVHDKDNVEELIKMFAHFDNNCTGYLTKSQMKNILTTWGDALTDQEAIDALNAFSSEDNIDYKLFCEDILQ
chain 3: MASDMEEKFREAFILFSSCSDHIEMYKFFELMNSFGIILTNDEKAALPNDINMDYWLNFAKKHYNYEQPFKHINNVNEQNTNVQIKIDNFLGIMKALDTRLTESDLNILLQITNPENKSTLNLKTVSQKLTESI
modifications: phosphoserine at 19 (96 ± 1% of the peptides); biotin on the biotin carboxyl carrier protein segment
As for B1, the “Km for skeletal actin of the actin-activated ATPase activity (Michaelis-Menten fit, 30 °C, 5 mM KCl)” value (“Km for skeletal actin” below) was found to be 30.3 µM.

B2: ΔN version of full-length PfMyoA heavy chain (residues Ala2 through Ser19 removed), co-expressed wit (complex)
chain 1: MNVEAFDKSGSVFKGYQIWTDISPTIENDPNIMFVKCVVQQGSKKEKLTVVQIDPPGTGTPYDIDPTHAWNCNSQVDPMSFGDIGLLNHTNIPCVLDFLKHRYLKNQIYTTAVPLIVAINPYKDLGNTTNEWIRRYRDTADHTKLPPHVFTCAREALSNLHGVNKSQTIIVSGESGAGKTEATKQIMRYFASSKSGNMDLRIQTAIMAANPVLEAFGNAKTIRNNNSSRFGRFMQLVISHEGGIRYGSVVAFLLEKSRIITQDDNERSYHIFYQFLKGANSTMKSKFGLKGVTEYKLLNPNSTEVSGVDDVKDFEEVIESLKNMELSESDIEVIFSIVAGILTLGNVRLIEKQEAGLSDAAAIMDEDMGVFNKACELMYLDPELIKREILIKVTVAGGTKIEGRWNKNDAEVLKSSLCKAMYEKLFLWIIRHLNSRIEPEGGFKTFMGMLDIFGFEVFKNNSLEQLFINITNEMLQKNFVDIVFERESKLYKDEGISTAELKYTSNKEVINVLCEKGKSVLSYLEDQCLAPGGTDEKFVSSCATNLKENNKFTPAKVASNKNFIIQHTIGPIQYCAESFLLKNKDVLRGDLVEVIKDSPNPIVQQLFEGQVIEKGKIAKGSLIGSQFLNQLTSLMNLINSTEPHFIRCIKPNENKKPLEWCEPKILIQLHALSILEALVLRQLGYSYRRTFEEFLYQYKFVDIAAAEDSSVENQNKCVNILKLSGLSESMYKIGKSMVFLKQEGAKILTKIQREKLVEWENCVSVIEAAILKHKYKQKVNKNIPSLLRVQAHIRKKMVAQ
chain 2: MKQECNVCYFNLPDPESTLGPYDNELNYFTWGPGFEYEPEPQRKPLSIEESFENSEESEESVADIQQLEEKVDESDVRIYFNEKSSGGKISIDNASYNARKLGLAPSSIDEKKIKELYGDNLTYEQYLEYLSICVHDKDNVEELIKMFAHFDNNCTGYLTKSQMKNILTTWGDALTDQEAIDALNAFSSEDNIDYKLFCEDILQ
chain 3: MASDMEEKFREAFILFSSCSDHIEMYKFFELMNSFGIILTNDEKAALPNDINMDYWLNFAKKHYNYEQPFKHINNVNEQNTNVQIKIDNFLGIMKALDTRLTESDLNILLQITNPENKSTLNLKTVSQKLTESI
modifications: biotin on the biotin carboxyl carrier protein segment
Consider B2, for which the “Km for skeletal actin” value was 7.34 µM.

B3: Full-length PfMyoA heavy chain K764E (charge reversal in the converter), co-expressed with the light chains PfMTIP and PfELC (complex)
chain 1: MAVTNEEIKTASKIVRRVSNVEAFDKSGSVFKGYQIWTDISPTIENDPNIMFVKCVVQQGSKKEKLTVVQIDPPGTGTPYDIDPTHAWNCNSQVDPMSFGDIGLLNHTNIPCVLDFLKHRYLKNQIYTTAVPLIVAINPYKDLGNTTNEWIRRYRDTADHTKLPPHVFTCAREALSNLHGVNKSQTIIVSGESGAGKTEATKQIMRYFASSKSGNMDLRIQTAIMAANPVLEAFGNAKTIRNNNSSRFGRFMQLVISHEGGIRYGSVVAFLLEKSRIITQDDNERSYHIFYQFLKGANSTMKSKFGLKGVTEYKLLNPNSTEVSGVDDVKDFEEVIESLKNMELSESDIEVIFSIVAGILTLGNVRLIEKQEAGLSDAAAIMDEDMGVFNKACELMYLDPELIKREILIKVTVAGGTKIEGRWNKNDAEVLKSSLCKAMYEKLFLWIIRHLNSRIEPEGGFKTFMGMLDIFGFEVFKNNSLEQLFINITNEMLQKNFVDIVFERESKLYKDEGISTAELKYTSNKEVINVLCEKGKSVLSYLEDQCLAPGGTDEKFVSSCATNLKENNKFTPAKVASNKNFIIQHTIGPIQYCAESFLLKNKDVLRGDLVEVIKDSPNPIVQQLFEGQVIEKGKIAKGSLIGSQFLNQLTSLMNLINSTEPHFIRCIKPNENKKPLEWCEPKILIQLHALSILEALVLRQLGYSYRRTFEEFLYQYKFVDIAAAEDSSVENQNKCVNILKLSGLSESMYKIGKSMVFLKQEGAEILTKIQREKLVEWENCVSVIEAAILKHKYKQKVNKNIPSLLRVQAHIRKKMVAQ
chain 2: MKQECNVCYFNLPDPESTLGPYDNELNYFTWGPGFEYEPEPQRKPLSIEESFENSEESEESVADIQQLEEKVDESDVRIYFNEKSSGGKISIDNASYNARKLGLAPSSIDEKKIKELYGDNLTYEQYLEYLSICVHDKDNVEELIKMFAHFDNNCTGYLTKSQMKNILTTWGDALTDQEAIDALNAFSSEDNIDYKLFCEDILQ
chain 3: MASDMEEKFREAFILFSSCSDHIEMYKFFELMNSFGIILTNDEKAALPNDINMDYWLNFAKKHYNYEQPFKHINNVNEQNTNVQIKIDNFLGIMKALDTRLTESDLNILLQITNPENKSTLNLKTVSQKLTESI
modifications: biotin on the biotin carboxyl carrier protein segment
As for B3, the “Km for skeletal actin” value is 18.2 µM.

B4: Full-length PfMyoA heavy chain S19A (phospho-null), co-expressed with the light chains PfMTIP and PfELC (complex)
chain 1: MAVTNEEIKTASKIVRRVANVEAFDKSGSVFKGYQIWTDISPTIENDPNIMFVKCVVQQGSKKEKLTVVQIDPPGTGTPYDIDPTHAWNCNSQVDPMSFGDIGLLNHTNIPCVLDFLKHRYLKNQIYTTAVPLIVAINPYKDLGNTTNEWIRRYRDTADHTKLPPHVFTCAREALSNLHGVNKSQTIIVSGESGAGKTEATKQIMRYFASSKSGNMDLRIQTAIMAANPVLEAFGNAKTIRNNNSSRFGRFMQLVISHEGGIRYGSVVAFLLEKSRIITQDDNERSYHIFYQFLKGANSTMKSKFGLKGVTEYKLLNPNSTEVSGVDDVKDFEEVIESLKNMELSESDIEVIFSIVAGILTLGNVRLIEKQEAGLSDAAAIMDEDMGVFNKACELMYLDPELIKREILIKVTVAGGTKIEGRWNKNDAEVLKSSLCKAMYEKLFLWIIRHLNSRIEPEGGFKTFMGMLDIFGFEVFKNNSLEQLFINITNEMLQKNFVDIVFERESKLYKDEGISTAELKYTSNKEVINVLCEKGKSVLSYLEDQCLAPGGTDEKFVSSCATNLKENNKFTPAKVASNKNFIIQHTIGPIQYCAESFLLKNKDVLRGDLVEVIKDSPNPIVQQLFEGQVIEKGKIAKGSLIGSQFLNQLTSLMNLINSTEPHFIRCIKPNENKKPLEWCEPKILIQLHALSILEALVLRQLGYSYRRTFEEFLYQYKFVDIAAAEDSSVENQNKCVNILKLSGLSESMYKIGKSMVFLKQEGAKILTKIQREKLVEWENCVSVIEAAILKHKYKQKVNKNIPSLLRVQAHIRKKMVAQ
chain 2: MKQECNVCYFNLPDPESTLGPYDNELNYFTWGPGFEYEPEPQRKPLSIEESFENSEESEESVADIQQLEEKVDESDVRIYFNEKSSGGKISIDNASYNARKLGLAPSSIDEKKIKELYGDNLTYEQYLEYLSICVHDKDNVEELIKMFAHFDNNCTGYLTKSQMKNILTTWGDALTDQEAIDALNAFSSEDNIDYKLFCEDILQ
chain 3: MASDMEEKFREAFILFSSCSDHIEMYKFFELMNSFGIILTNDEKAALPNDINMDYWLNFAKKHYNYEQPFKHINNVNEQNTNVQIKIDNFLGIMKALDTRLTESDLNILLQITNPENKSTLNLKTVSQKLTESI
modifications: biotin on the biotin carboxyl carrier protein segment
B4: the “Km for skeletal actin” value stood at 8.5 µM.
